Test results published in the supplement of paper PMC10567573.

B1: FBF1 (parent)
chain: FGDSPKAEKRQIGDQEGPRPARST
B2: APBB1IP (parent)
chain: SQVSMWDQRWQDHQPLLPITDVP

Variants of: B1
Test: protein stability index of a GFP-peptide fusion (GPS, HEK-293T) (PSI 1-6); higher = more stable
Settings: c terminus: a fixed tail appended
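Further: lentivirally expressed fusions sorted by FACS into six bins by GFP to DsRed ratio, PSI derived from sequencing read proportions per bin multiplied by bin number.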

Protein stability index of substitutions, site by site:
Q15: N 4.69; T 4.96; P 5.38; V 4.81
E8: C 4.11; D 5.48; N 4.53; Y 3.39; L 3.87; F 3.27; Q 4.48; S 4.58; A 4.84; P 4.97; T 3.77; R 4.43; I 4.26
Q11: D 5.29; I 4.61; P 5.25; A 5.6; S 5.29; L 4.7; K 4.86; F 3.59; C 5.06; T 5; H 5.16; E 5.33; V 5.08; G 5.34; M 5.22; Y 4.45; N 5.38; W 3.76
E16: L 4.66; S 5.27; P 5.09; W 3.48; K 4.81; A 4.55; D 5.75; G 3.41; N 4.98; H 4.21; V 4.99; Y 4.14; I 4.83; F 4.55; R 5.02; M 4.57; C 4.79; T 5.03; Q 5.19
D3: W 3.87; Q 5.25; C 4.62; H 4.49; A 4.79; V 5.55; S 4.89; K 4.17; E 5.41; R 4.97; T 4.99; M 4.57; L 5.13; F 5.01; P 5.14; N 5.06; I 5.04; Y 4.67
R19: T 4.23; D 5.3; S 5.4; C 5.4; N 5.34; I 5.08; E 5.73; L 4.9; G 5.13; F 4.87; K 4.88; H 3.86; Q 4.91; M 4.9
S4: H 5.43; M 4.68; D 5.43; G 4.96; F 4.75; R 4.88; C 5.01; W 2.73; T 4.16; K 4.79; L 5.27; I 5.33; N 4.79; P 5.05; A 4.3; Y 4.31; V 5.61; E 5.2; Q 4.75
K9: E 5.1; G 5.2; P 5.54; S 5.47; N 5.93; T 5.17; V 4.89; Q 5.53; F 4.43; I 5.23; A 4.97; Y 4.74; H 5.22; R 5.46; D 5.52
G2: H 4.58; Y 5.18; T 4.82; I 3.83; C 4.19; N 4.16; F 4.63; W 5.31; P 5.29; A 4.53; D 4.94; V 1.77; R 5.98; K 4.72; E 5.83; M 4.96; S 4.96; Q 4.99
K6: V 4.24; E 5.25; T 5.56; I 4.78; D 5.22; Y 4.8; A 5.55; S 5.64; W 4.57; L 4.84; N 5.08; P 4.89; Q 3.71; C 5.52; F 4.06

Variants of: B2
Test: as above
Settings: c terminus: native

Protein stability index, by site and new letter:
P23: Q 1.61; Y 2.74; R 4.33; I 2.48; S 3.01; N 1.81; T 2.01; F 2.21; M 1.19; L 2.06; H 2.58; K 2.03; G 1.91; W 2.17
